“And” between values parts separate entries of the source, which are not always exact repeats. Equal values may be shown once.
Assays:
[1] = test system: pancreatic islets from diabetic db/db mice; assay: Restoration of glucose stimulated insulin release ex vivo (islet perifusion); format: cell-based; set-up: AUC for time 35-75 minutes (glucose response), single repetitions / AUC for time 75-140 minutes (forskolin response), single repetitions: unit not given here; conditions: for insulin release: mean +/- SEM
Method: This ex vivo example investigates the ability of pancreatic islets from diabetic db/db mice to restore, in response to treatment with FGF21 and GLP-1 compounds, the ability to release insulin in response to glucose stimulation.
Islets from 25 db/db mice (Charles River), 15 weeks of age, were isolated according to the following procedure:
Animals were killed by cervical dislocation and fixated with pins on a Styrofoam plate. Pancreata were removed and transferred to a Packard vial containing 5 ml collagenase (Life Science, grade II, cat. no. 100502) 300 units/ml (one pancreas/vial) which was kept on ice until all pancreata were removed. Then the pancreata were shaken in the Grant/Edmund S25 thermoshaker at 200 strokes/min. at 37° C. for 5 min. The tissue was transferred to a fresh vial containing 5 ml 150 units/ml collagenase (supernatant was discarded) and shaken again in the thermoshaker for 5 min. The tissue was further shaken 3-5 min. on the thermoshaker, and thereafter all shaking is done by hand for 5-10 sec. each time. These steps were repeated until all tissue was digested. The process was followed continuously under the stereomicroscope and once digested the tissue was pooled and collected in progressively fewer tubes. All supernatants were washed 3 times in HBSS+0.5% NCS (HBSS (10×) from Gibco, cat. no. 14060, is diluted 10× in H2O before use, Newborn Calf Serum (NCS) from Gibco, cat. no. 26010-066), allowed to sediment for 5 min. between each wash, and left on ice, following which the islets were ready for picking. Islets were purified by transferring a little bit of supernatant to a Petri dish, filling up with HBSS+NCS and subsequently transferring (by mouth pipetting) with a constriction pipette to a new Petri dish. From there the islet were re-picked until pure, and then incubated in RPMI 1640 medium (Gibco, cat no 61870-010)+10% NCS at 37° C.
After incubation, the islets were washed in Krebs Ringer solution (115 mM NaCl, 4.7 mM KCl, 2.6 mM CaCl2, 1.2 mM KH2PO4, 1.2 mM MgSO4, 10 mM HEPES, 0.2% BSA, 2 mM glutamine, 5 mM NaHCO3, pH 7.4) and subsequently used in an islet perifusion experiment (Suprafusion 2500 from Brandel). For each of the three preincubation conditions four perifusion columns each with 60 islets were used. The islets were placed in Bio-gel P2 (Bio-Rad. cat. no. 150-4114) in the columns with a nylon mesh below and above the gel. The islets were initially perifused for 40 minutes with Krebs Ringer solution containing 3 mM glucose to obtain a stable baseline of insulin release. After 40 minutes the buffer was exchanged to 15 mM glucose for 30 minutes (time 40-70 min). Then the buffer was exchanged to 15 mM glucose containing 10 μM forskolin (Tocris 1099, batch 3A/86008) for 40 minutes (time 70-110 min). Finally the buffer was exchanged to low glucose (3 mM) for 30 minutes (time 110-140 min). The buffer was set to flow through the perifusion system at a rate of 0.3 ml/minute. Samples were taken every 5 minutes from time 30 to 140 min. Samples were stored at −20° C. and subsequently analysed for insulin, essentially as described by Poulsen et al. in Journal of Biomolecular Screening 12(X); p. 1-8, 2007 (LOCI (Luminescent Oxygen Channeling Immunoassay) sandwich immunoassay).
The results (ng/ml insulin) are shown in Table 1 below as mean+/−standard error of mean (SEM). The figures for the control and the FGF21 compound are based on three repetitions (due to problems with one of the four columns in these two experiments), while the figures for the GLP-1 compound are based on four repetitions.
The corresponding Area Under the Curve (designated AUC) figures were also calculated, and for the statistics the Student's T-test was used.

db/db mice = assay: Effect on blood glucose in vivo, acute study in db/db mice; conditions: compound F1 0.125 mg/kg s.c. 1 × daily for 3 days and/or compound G4 1 nmol/kg s.c. one hour after last FGF21 dose, 0-48 hours post GLP-1 dose
Method: This acute in vivo study investigates the effect of FGF21 and GLP-1 compounds on blood glucose levels of db/db mice.
The db/db mouse is a hyperglycaemic, hyperinsulinaemic, hyperphagic and obese model of type 2 diabetes.
23 db/db mice (Male, C57BLKS db/db, from Taconic, Denmark, 15-16 weeks of age).
Dosed subcutaneously 1 × daily with 0.125 mg/kg human FGF21 (n=11) (compound F1) or vehicle (n=12) for 3 days. Vehicle was sterile PBS-buffer (DPBS, Gibco, cat. no. 14190).
Both groups of animals were then dosed with either vehicle or GLP-1 compound G4 at 1 nmol/kg (n=5-6). The G4 compound is a GLP-1 analogue which has an extended half-life due to its derivatisation with an albumin binder. The GLP-1 or vehicle dose was given subcutaneously one hour after the last FGF21 or vehicle dose.
Blood samples of 10 μl were taken from the tip of the tail for the measurement of blood glucose from 0-48 hours post dose of the GLP-1 compound.
Results were analysed using the area under the glucose curve (AUC) for the vehicle group, the GLP-1 group, the FGF21 group and the combined group.
The expected AUC was calculated using the following formula: […]
AUCvehicle−((AUCvehicle−AUCFGF212)+(AUCvehicle−AUCGLP-1))

[2] = insulin AUC per perifusion column, FGF21 = 50 nM Compound F1, GLP-1 = 100 nM Compound G3

B1: Met-FGF21_human (protein, listed as Homo sapiens)
chain: HPIPDSSPLLQFGGQVRQRYLYTDDAQQTEAHLEIREDGTVGGAADQSPESLLQLKALKPGVIQILGVKTSRFLCQRPDGALYGSLHFDPEACSFRELLLEDGYNVYQSEAHGLPLHLPGNKSPHRDPAPRGPARFLPLPGLPPALPEPPGILAPQPPDVGSSDPLSMVGPSQGRSPSYAS
modifications: N-terminal Met; mat_peptide (1)..(181); DISULFID (75)..(93)
[1]; db/db mice pancreatic islets, Table 2 results, F1 50 nM, G3 100 nM
  restoration of glucose stimulated insulin release ex vivo: capable of restoring glucose stimulated insulin release
[1]; [2]
  AUC for time 35-75 minutes (glucose response), single repetitions: 521.2 and 514.5 and 359.9
  AUC for time 75-140 minutes (forskolin response), single repetitions: 5402 and 4177 and 5832
[1]; insulin AUC, FGF21 = 50 nM Compound F1, GLP-1 = 100 nM Compound G3, * FGF21 vs GLP-1
  AUC for time 75-140 minutes (forskolin response), mean: (mean 5137*)
[1]; insulin AUC, FGF21 = 50 nM Compound F1, GLP-1 = 100 nM Compound G3, ** vs control
  AUC for time 35-75 minutes (glucose response), mean: (mean 465.2**)
[1]; time 35 min, 3 mM glucose, islets preincubated 48 h with 50 nM Compound F1 or 100 nM Compound G3
  insulin release: 0.92 ± 0.10 ng/mL
[1]; time 40 min, 3 mM glucose, preincubation 48 h 50 nM F1 or 100 nM G3
  insulin release: 0.71 ± 0.06 ng/mL
[1]; time 45 min, 15 mM glucose, preincubation 48 h 50 nM F1 or 100 nM G3
  insulin release: 0.68 ± 0.04 ng/mL
[1]; time 50 min, 15 mM glucose, preincubation 48 h 50 nM F1 or 100 nM G3
  insulin release: 19.56 ± 6.74 ng/mL
[1]; time 55 min, 15 mM glucose, preincubation 48 h 50 nM F1 or 100 nM G3
  insulin release: 28.33 ± 2.09 ng/mL
[1]; time 60 min, 15 mM glucose, preincubation 48 h 50 nM F1 or 100 nM G3
  insulin release: 12.07 ± 0.50 ng/mL
[1]; time 65 min, 15 mM glucose, preincubation 48 h 50 nM F1 or 100 nM G3
  insulin release: 11.13 ± 0.66 ng/mL
[1]; time 70 min, 15 mM glucose, preincubation 48 h 50 nM F1 or 100 nM G3
  insulin release: 13.37 ± 0.63 ng/mL
[1]; time 75 min, 15 mM glucose + 10 μM forskolin, preincubation 48 h 50 nM F1 or 100 nM G3
  insulin release: 13.47 ± 0.78 ng/mL
[1]; time 80 min, 15 mM glucose + 10 μM forskolin, preincubation 48 h 50 nM F1 or 100 nM G3
  insulin release: 77.17 ± 14.84 ng/mL
[1]; time 85 min, 15 mM glucose + 10 μM forskolin, preincubation 48 h 50 nM F1 or 100 nM G3
  insulin release: 160.00 ± 16.52 ng/mL
[1]; time 90 min, 15 mM glucose + 10 μM forskolin, preincubation 48 h 50 nM F1 or 100 nM G3
  insulin release: 154.00 ± 15.00 ng/mL
[1]; time 95 min, 15 mM glucose + 10 μM forskolin, preincubation 48 h 50 nM F1 or 100 nM G3
  insulin release: 148.33 ± 17.95 ng/mL
[1]; time 100 min, 15 mM glucose + 10 μM forskolin, preincubation 48 h 50 nM F1 or 100 nM G3
  insulin release: 125.00 ± 17.35 ng/mL
[1]; time 105 min, 15 mM glucose + 10 μM forskolin, preincubation 48 h 50 nM F1 or 100 nM G3
  insulin release: 99.40 ± 11.84 ng/mL
[1]; time 110 min, 15 mM glucose + 10 μM forskolin, preincubation 48 h 50 nM F1 or 100 nM G3
  insulin release: 79.97 ± 8.43 ng/mL
[1]; time 115 min, low glucose (3 mM), preincubation 48 h 50 nM F1 or 100 nM G3
  insulin release: 69.63 ± 9.61 ng/mL
[1]; time 120 min, low glucose (3 mM), preincubation 48 h 50 nM F1 or 100 nM G3
  insulin release: 56.23 ± 8.37 ng/mL
[1]; time 125 min, low glucose (3 mM), preincubation 48 h 50 nM F1 or 100 nM G3
  insulin release: 30.03 ± 6.67 ng/mL
[1]; time 130 min, low glucose (3 mM), preincubation 48 h 50 nM F1 or 100 nM G3
  insulin release: 13.16 ± 3.21 ng/mL
[1]; time 135 min, low glucose (3 mM), preincubation 48 h 50 nM F1 or 100 nM G3
  insulin release: 5.76 ± 0.70 ng/mL
[1]; time 140 min, low glucose (3 mM), preincubation 48 h 50 nM F1 or 100 nM G3
  insulin release: 3.92 ± 0.37 ng/mL
db/db mice
  Glucose lowering capacity (AUC), blood glucose AUC0-48 h, mean: 389.8 mM·min

Reference: patent US20120172298A1, “GLP-1 AND FGF21 COMBINATIONS FOR TREATMENT OF DIABETES TYPE 2” (Novo Nordisk A/S, priority 2009, published 2012)
